According to patent publication US20240270846A1 (published 2024):

B1: CE115HA000 A99T one-arm antibody (antibody, human IgG1, kappa, L234A L235A, N297A, name in Kabat numbering)
heavy: QVQLVESGGGVVQPGRSLRLSCAASGFTFSNAWMHWVRQAPGKGLEWVAQIKAKSNNYATYYAESVKGRFTISRDDSKNSLYLQMNSLKTEDTAVYYCRYVHYGTYYGVDAWGQGTTVTVSSASTKGPSVFPLAPSSKSTSGGTAALGCLVKDYFPEPVTVSWNSGALTSGVHTFPAVLQSSGLYSLSSVVTVPSSSLGTQTYICNVNHKPSNTKVDKKVEPKSCDKTHTCPPCPAPEAAGGPSVFLFPPKPKDTLMISRTPEVTCVVVDVSHEDPEVKFNWYVDGVEVHNAKTKPREEQYASTYRVVSVLTVLHQDWLNGKEYKCKVSNKALPAPIEKTISKAKGQPREPQVYTLPPSRCELTKNQVSLSCAVKGFYPSDIAVEWESNGQPENNYKTTPPVLDSDGSFFLVSKLTVDKSRWQQGNVFSCSVMHEALHNHYTQKSLSLSPDYKDDDDK
chain: EPKSSDKTHTCPPCPAPELLGGPSVFLFPPKPKDTLMISRTPEVTCVVVDVSHEDPEVKFNWYVDGVEVHNAKTKPREEQYNSTYRVVSVLTVLHQDWLNGKEYKCKVSNKALPAPIEKTISKAKGQPREPQVCTLPPSRDELTKNQVSLWCLVKGFYPSDIAVEWESNGQPENNYKTTPPVLDSDGSFFLYSKLTVDKSRWQQGNVFSCSVMHEALHNRYTQKSLSLSP
light: DIVMTQSPLSLPVTPGEPASISCRSSQSLVHSNRNTYLHWYQQKPGQAPRLLIYKVSNRFSGVPDRFSGSGSGTDFTLKISRVEAEDVGVYYCGQGTQVPYTFGQGTKLEIKRTVAAPSVFIFPPSDEQLKSGTASVVCLLNNFYPREAKVQWKVDNALQSGNSQESVTEQDSKDSTYSLSSTLTLSKADYEKHKVYACEVTHQGLSSPVTKSFNRGEC
notes: one-arm antibody (one Fab)
B2: CE115HA000 A102I one-arm antibody (antibody, human IgG1, kappa, L234A L235A, N297A, name in Kabat numbering)
heavy: QVQLVESGGGVVQPGRSLRLSCAASGFTFSNAWMHWVRQAPGKGLEWVAQIKAKSNNYATYYAESVKGRFTISRDDSKNSLYLQMNSLKTEDTAVYYCRYVHYGAYYGVDIWGQGTTVTVSSASTKGPSVFPLAPSSKSTSGGTAALGCLVKDYFPEPVTVSWNSGALTSGVHTFPAVLQSSGLYSLSSVVTVPSSSLGTQTYICNVNHKPSNTKVDKKVEPKSCDKTHTCPPCPAPEAAGGPSVFLFPPKPKDTLMISRTPEVTCVVVDVSHEDPEVKFNWYVDGVEVHNAKTKPREEQYASTYRVVSVLTVLHQDWLNGKEYKCKVSNKALPAPIEKTISKAKGQPREPQVYTLPPSRCELTKNQVSLSCAVKGFYPSDIAVEWESNGQPENNYKTTPPVLDSDGSFFLVSKLTVDKSRWQQGNVFSCSVMHEALHNHYTQKSLSLSPDYKDDDDK
chain: EPKSSDKTHTCPPCPAPELLGGPSVFLFPPKPKDTLMISRTPEVTCVVVDVSHEDPEVKFNWYVDGVEVHNAKTKPREEQYNSTYRVVSVLTVLHQDWLNGKEYKCKVSNKALPAPIEKTISKAKGQPREPQVCTLPPSRDELTKNQVSLWCLVKGFYPSDIAVEWESNGQPENNYKTTPPVLDSDGSFFLYSKLTVDKSRWQQGNVFSCSVMHEALHNRYTQKSLSLSP
light: DIVMTQSPLSLPVTPGEPASISCRSSQSLVHSNRNTYLHWYQQKPGQAPRLLIYKVSNRFSGVPDRFSGSGSGTDFTLKISRVEAEDVGVYYCGQGTQVPYTFGQGTKLEIKRTVAAPSVFIFPPSDEQLKSGTASVVCLLNNFYPREAKVQWKVDNALQSGNSQESVTEQDSKDSTYSLSSTLTLSKADYEKHKVYACEVTHQGLSSPVTKSFNRGEC
notes: one-arm antibody (one Fab)
B3: CE115HA000 A102P one-arm antibody (antibody, human IgG1, kappa, L234A L235A, N297A, name in Kabat numbering)
heavy: QVQLVESGGGVVQPGRSLRLSCAASGFTFSNAWMHWVRQAPGKGLEWVAQIKAKSNNYATYYAESVKGRFTISRDDSKNSLYLQMNSLKTEDTAVYYCRYVHYGAYYGVDPWGQGTTVTVSSASTKGPSVFPLAPSSKSTSGGTAALGCLVKDYFPEPVTVSWNSGALTSGVHTFPAVLQSSGLYSLSSVVTVPSSSLGTQTYICNVNHKPSNTKVDKKVEPKSCDKTHTCPPCPAPEAAGGPSVFLFPPKPKDTLMISRTPEVTCVVVDVSHEDPEVKFNWYVDGVEVHNAKTKPREEQYASTYRVVSVLTVLHQDWLNGKEYKCKVSNKALPAPIEKTISKAKGQPREPQVYTLPPSRCELTKNQVSLSCAVKGFYPSDIAVEWESNGQPENNYKTTPPVLDSDGSFFLVSKLTVDKSRWQQGNVFSCSVMHEALHNHYTQKSLSLSPDYKDDDDK
chain: EPKSSDKTHTCPPCPAPELLGGPSVFLFPPKPKDTLMISRTPEVTCVVVDVSHEDPEVKFNWYVDGVEVHNAKTKPREEQYNSTYRVVSVLTVLHQDWLNGKEYKCKVSNKALPAPIEKTISKAKGQPREPQVCTLPPSRDELTKNQVSLWCLVKGFYPSDIAVEWESNGQPENNYKTTPPVLDSDGSFFLYSKLTVDKSRWQQGNVFSCSVMHEALHNRYTQKSLSLSP
light: DIVMTQSPLSLPVTPGEPASISCRSSQSLVHSNRNTYLHWYQQKPGQAPRLLIYKVSNRFSGVPDRFSGSGSGTDFTLKISRVEAEDVGVYYCGQGTQVPYTFGQGTKLEIKRTVAAPSVFIFPPSDEQLKSGTASVVCLLNNFYPREAKVQWKVDNALQSGNSQESVTEQDSKDSTYSLSSTLTLSKADYEKHKVYACEVTHQGLSSPVTKSFNRGEC
notes: one-arm antibody (one Fab)
B4: CE115HA000 A102Y one-arm antibody (antibody, human IgG1, kappa, L234A L235A, N297A, name in Kabat numbering)
heavy: QVQLVESGGGVVQPGRSLRLSCAASGFTFSNAWMHWVRQAPGKGLEWVAQIKAKSNNYATYYAESVKGRFTISRDDSKNSLYLQMNSLKTEDTAVYYCRYVHYGAYYGVDYWGQGTTVTVSSASTKGPSVFPLAPSSKSTSGGTAALGCLVKDYFPEPVTVSWNSGALTSGVHTFPAVLQSSGLYSLSSVVTVPSSSLGTQTYICNVNHKPSNTKVDKKVEPKSCDKTHTCPPCPAPEAAGGPSVFLFPPKPKDTLMISRTPEVTCVVVDVSHEDPEVKFNWYVDGVEVHNAKTKPREEQYASTYRVVSVLTVLHQDWLNGKEYKCKVSNKALPAPIEKTISKAKGQPREPQVYTLPPSRCELTKNQVSLSCAVKGFYPSDIAVEWESNGQPENNYKTTPPVLDSDGSFFLVSKLTVDKSRWQQGNVFSCSVMHEALHNHYTQKSLSLSPDYKDDDDK
chain: EPKSSDKTHTCPPCPAPELLGGPSVFLFPPKPKDTLMISRTPEVTCVVVDVSHEDPEVKFNWYVDGVEVHNAKTKPREEQYNSTYRVVSVLTVLHQDWLNGKEYKCKVSNKALPAPIEKTISKAKGQPREPQVCTLPPSRDELTKNQVSLWCLVKGFYPSDIAVEWESNGQPENNYKTTPPVLDSDGSFFLYSKLTVDKSRWQQGNVFSCSVMHEALHNRYTQKSLSLSP
light: DIVMTQSPLSLPVTPGEPASISCRSSQSLVHSNRNTYLHWYQQKPGQAPRLLIYKVSNRFSGVPDRFSGSGSGTDFTLKISRVEAEDVGVYYCGQGTQVPYTFGQGTKLEIKRTVAAPSVFIFPPSDEQLKSGTASVVCLLNNFYPREAKVQWKVDNALQSGNSQESVTEQDSKDSTYSLSSTLTLSKADYEKHKVYACEVTHQGLSSPVTKSFNRGEC
notes: one-arm antibody (one Fab)
B5: CE115HA000 A99Y one-arm antibody (antibody, human IgG1, kappa, L234A L235A, N297A, name in Kabat numbering)
heavy: QVQLVESGGGVVQPGRSLRLSCAASGFTFSNAWMHWVRQAPGKGLEWVAQIKAKSNNYATYYAESVKGRFTISRDDSKNSLYLQMNSLKTEDTAVYYCRYVHYGYYYGVDAWGQGTTVTVSSASTKGPSVFPLAPSSKSTSGGTAALGCLVKDYFPEPVTVSWNSGALTSGVHTFPAVLQSSGLYSLSSVVTVPSSSLGTQTYICNVNHKPSNTKVDKKVEPKSCDKTHTCPPCPAPEAAGGPSVFLFPPKPKDTLMISRTPEVTCVVVDVSHEDPEVKFNWYVDGVEVHNAKTKPREEQYASTYRVVSVLTVLHQDWLNGKEYKCKVSNKALPAPIEKTISKAKGQPREPQVYTLPPSRCELTKNQVSLSCAVKGFYPSDIAVEWESNGQPENNYKTTPPVLDSDGSFFLVSKLTVDKSRWQQGNVFSCSVMHEALHNHYTQKSLSLSPDYKDDDDK
chain: EPKSSDKTHTCPPCPAPELLGGPSVFLFPPKPKDTLMISRTPEVTCVVVDVSHEDPEVKFNWYVDGVEVHNAKTKPREEQYNSTYRVVSVLTVLHQDWLNGKEYKCKVSNKALPAPIEKTISKAKGQPREPQVCTLPPSRDELTKNQVSLWCLVKGFYPSDIAVEWESNGQPENNYKTTPPVLDSDGSFFLYSKLTVDKSRWQQGNVFSCSVMHEALHNRYTQKSLSLSP
light: DIVMTQSPLSLPVTPGEPASISCRSSQSLVHSNRNTYLHWYQQKPGQAPRLLIYKVSNRFSGVPDRFSGSGSGTDFTLKISRVEAEDVGVYYCGQGTQVPYTFGQGTKLEIKRTVAAPSVFIFPPSDEQLKSGTASVVCLLNNFYPREAKVQWKVDNALQSGNSQESVTEQDSKDSTYSLSSTLTLSKADYEKHKVYACEVTHQGLSSPVTKSFNRGEC
notes: one-arm antibody (one Fab)
B6: CE115HA000 A102V one-arm antibody (antibody, human IgG1, kappa, L234A L235A, N297A, name in Kabat numbering)
heavy: QVQLVESGGGVVQPGRSLRLSCAASGFTFSNAWMHWVRQAPGKGLEWVAQIKAKSNNYATYYAESVKGRFTISRDDSKNSLYLQMNSLKTEDTAVYYCRYVHYGAYYGVDVWGQGTTVTVSSASTKGPSVFPLAPSSKSTSGGTAALGCLVKDYFPEPVTVSWNSGALTSGVHTFPAVLQSSGLYSLSSVVTVPSSSLGTQTYICNVNHKPSNTKVDKKVEPKSCDKTHTCPPCPAPEAAGGPSVFLFPPKPKDTLMISRTPEVTCVVVDVSHEDPEVKFNWYVDGVEVHNAKTKPREEQYASTYRVVSVLTVLHQDWLNGKEYKCKVSNKALPAPIEKTISKAKGQPREPQVYTLPPSRCELTKNQVSLSCAVKGFYPSDIAVEWESNGQPENNYKTTPPVLDSDGSFFLVSKLTVDKSRWQQGNVFSCSVMHEALHNHYTQKSLSLSPDYKDDDDK
chain: EPKSSDKTHTCPPCPAPELLGGPSVFLFPPKPKDTLMISRTPEVTCVVVDVSHEDPEVKFNWYVDGVEVHNAKTKPREEQYNSTYRVVSVLTVLHQDWLNGKEYKCKVSNKALPAPIEKTISKAKGQPREPQVCTLPPSRDELTKNQVSLWCLVKGFYPSDIAVEWESNGQPENNYKTTPPVLDSDGSFFLYSKLTVDKSRWQQGNVFSCSVMHEALHNRYTQKSLSLSP
light: DIVMTQSPLSLPVTPGEPASISCRSSQSLVHSNRNTYLHWYQQKPGQAPRLLIYKVSNRFSGVPDRFSGSGSGTDFTLKISRVEAEDVGVYYCGQGTQVPYTFGQGTKLEIKRTVAAPSVFIFPPSDEQLKSGTASVVCLLNNFYPREAKVQWKVDNALQSGNSQESVTEQDSKDSTYSLSSTLTLSKADYEKHKVYACEVTHQGLSSPVTKSFNRGEC
notes: one-arm antibody (one Fab)

Target: T1, CD3 epsilon homodimer protein (UniProt P07766 23-126)
T1 construct: Immobilized on Sensor chip CM4 by amine coupling; construct not described; also called CD3 (CD3 epsilon)
T1 sequence (P07766 23-126): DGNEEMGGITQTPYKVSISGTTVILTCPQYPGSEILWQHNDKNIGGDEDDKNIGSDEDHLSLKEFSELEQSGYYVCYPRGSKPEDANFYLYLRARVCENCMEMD
Assay: SPR Biacore T200, CD3 epsilon homodimer on CM4 chip, antibody as analyte;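 further: Amine-coupled CD3 epsilon homodimer, run at 25 °C in HBS-EP+ buffer, ratio is bound amount of each single-residue H chain variant over that of the parent antibody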

First: B1
Second: B2
The “ratio of amounts bound (Y/X vs CE115HA000)” value (shortened to “ratio of amounts bound”) of the first is lower: 0.84 for the first, 1.48 for the second.

First: B3
Second: B4
The “ratio of amounts bound” value of the first is lower: 0.14 for the first, 0.91 for the second.

Compared with B5, B6 is lower in “ratio of amounts bound” value: 1.59 for the first, 1.43 for the second.
